Measurements as given in patent publication US20240043504A1 (published 2024).
Changes are numbered by the printed parent chain.

B1: mAb10971 (antibody, V domains shown)
VH: EVQLVESGGGLIQPGGSLRLSCAASGVTVSSNYMSWVRQAPGKGLEWVSVIYSGGSTFYSDSVKGRFSISRDNSKNTLYLQMNSLRAEDTAVYYCARDLYYYGMDVWGQGTTVTVSS
VL: DIQLTQSPSFLSASVGDRVTITCRASQGISTYLAWYQQKPGKAPKLLIYAASTLQSGVPSRFSGSGSGTEFTLTISSLQPEDFATYYCQQLDSYPGLTFGGGTKVEIKR
B2: mAb10932 (antibody, V domains shown)
VH: EVQLVESGGGLVQSGGSLRLSCAASGLTVSSNYMSWVRQAPGKGLEWVSVIYSGGSTFYSDSVKGRFTISRHNSKNTLYLQMNSLRAEDTAVYYCARARGDAFDIWGQGTMVTVSS
VL: not shown
B3: mAb10966 (antibody, V domains shown)
VH: EVQLVESGGGLVQPGGSLRLSCAASGLTVSSNYMSWVRQAPGKGLEWVSVIYSGGSTFYADSVKGRFTISRDNSKNTLYLQMNSLRPEDTAVYYCAREGRIAATGYGMDVWGQGTTVTVSS
VL: not shown
B4: mAb10937 (antibody, V domains shown)
VH: QITLKESGPTLVKPTQTLTLTCTFSGFSLSTNVVGVGWIRQPPGKALEWLALIYWNDDKRYSPSLKSRLTITKDTSKNQVVLTMTNMDPVDTATYYCAHGPTGDYFDYWGQGTLVTVSS
VL: not shown
B5: mAb10930 (antibody, V domains shown)
VH: EVQLVESGGGLVQPGRSLRLSCAASGFTFDDYAMYWVRQAPGKGLEWVSGISWNSGSIGYADSVKGRFTISRDNAKNSLYLQMNSLRAADTALYYCAKDKDWNSRGYYYYGMDVWGQGTTVTVSS
VL: not shown
B6: mAb10934 (antibody, V domains shown)
VH: not shown
VL: DIQMTQSPSSLSASVGDRVTITCQASQDIWNYINWYQQKPGKAPKLLIYDASNLKTGVPSRFSGSGSGTDFTFTISSLQPEDIATYYCQQHDDLPPTFGQGTKVEIKR
B7: mAb10955 (antibody, V domains shown)
VH: EVQLVESGGGLVQPGGSLRVSCAASGFTVSRNYMSWVRQAPGKGLEWVSVIYSGGSTFYADSVKGRFTISRDNSKNTLYLQMNSLRAEDTAIYYCARYIPRFDPWGQGTLVTVSS
VL: B6 VL with W30S, I33L, Y36F, K42R, K55E, H91Y, D93N, P96I, K103R, V104L
B8: mAb10935 (antibody, V domains shown)
VH: EVQLVESGGGLVQPGGSLRLSCAASGFTVSSNYMSWVRQAPGKGLEWVSLIYSGGSTYYADSVKGRFTISRHNSKNTLYLQMNSLRSEDTAVYYCARVPLGDYYYGMDVWGQGTTVTVSS
VL: B6 VL with W30N, N31K, I33L, K55E, H91S, D93N, P96L, Q100G
B9: mAb10967 (antibody, V domains shown)
VH: EVQLVESGGGLVQPGGSLRLSCAASGFTVSSNYMSWVRQAPGKGLEWVSVIYPGGSTFYADSVKGRFTISRDNSKNTLYLQMNSLRAEDTAVYYCARDQRDFAWGQGTLVTVSS
VL: B6 VL with W30S, I33L, K55E, S77G, H91Y, D93N, K103R, V104L
B10: mAb10938 (antibody, V domains shown)
VH: EVQLVESGGGLVQPGGSLRLSCAVSGFTVSSNYMSWVRQAPGKGLEWVSLIYSGGSTFYADSVKGRFTISRHNSKNTLYLQMNSLRAEDTAVYYCAREGGYSYDYNYWGQGTLVTVSS
VL: B6 VL with W30R, I33L, K55E, S65I, H91Y, D93N, P96I, K103R, V104L
B11: mAb10954 (antibody, V domains shown)
VH: EVQLVESGGGLVQPGGSLRLSCAASGITVSSNYMSWVRQAPGKGLEWVSLIYSGGSTYYADSVKGRFTISRDNSKNTLYLQMNSLRVEDTAVYYCARDHGMAAAGYNYWGQGTLVTVSS
VL: B6 VL with W30N, N31K, I33L, K55E, S76N, I83F, Y87F, H91Y, D93N, T97A
B12: mAb10914 (antibody, V domains shown)
VH: EVQLVESGGGLVQPGGSLRLSCAASGLIVSRNYMIWVRQAPGKGLEWVSVIYSGGSTFYADSVKGRFTISRHNSKNTLYLQMNSLRAEDTAVYYCARDLGTGGMDVWGQGTTVTVSS
VL: DIQLTQSPSFLSASVGDRVTITCWASQGISSYLAWYQQKPGKAPKLLIYAASTLQSGVPSRFSGSGSGTEFTLTISSLQPEDFATYYCQQLNSYPLTFGGGTKVEIKR
B13: mAb10957 (antibody, V domains shown)
VH: B1 VH with I12V, S60A, S68T, Y79F, A87I, Y100G, Y101P
VL: B1 VL with T31S, E70Q, T72I, D92N, L97F, G101P, E106D
B14: mAb10956 (antibody, V domains shown)
VH: B1 VH with I12V, V27L, S60A, S68T, Y100I, Y101K
VL: not shown
B15: mAb10923 (antibody, V domains shown)
VH: QVQLVQSGAEVKKPGASVKVSCKASGYTFINYYIHWVRQAPGQGLEWMGWINPNSGGTNYAQKFQGRVTMTRDTSISTAYMELSRLRSDDTAVYYCAIITIFGVVTWFDPWGQGTLVTVSS
VL: not shown
B16: mAb10920 (antibody, V domains shown)
VH: QVQLVESGGGVVQPGRSLRLSCAASGFTFSYYGMHWVRQAPGKGLEWVAVIWYDGSNKFYADSVKGRFTISRDNSKNTLYLQMNSLRAEDTAVYYCAAARPGYYYGMDVWGQGTTVTVSS
VL: DIQMTQSPSSLSASVGDRVTITCRASQGISNYLAWFQQKPGKAPNSLIYAASSLQRGVPSKFSGSGSGTDFTLTISSLQPEDFATYYCQQYNSYPRTFGQGTKVEIKR
B17: mAb10921 (antibody, V domains shown)
VH: EVQLVESGGGLVQPGGSLRLSCAASGITVSSNYMSWVRQAPGKGLEWVSVIYSGGSTFYADSVKGRFTISRHNSKNTLYLQMNSLRAEDTAVYYCARERNFDAFDIWGQGTMVTVSS
VL: DIQMTQSPSSVSASVGDRVTITCRASQGISSWLAWYQQKPGKAPKLLIYAASSLQSGVPSRFSGSGSGTDFTLTISSLQPEDFATYYCQQANSFPLFTFGPGTKVDIKR
B18: mAb10936 (antibody, V domains shown)
VH: QVQLVESGGGVVQPGRSLRLSCAASGFTFRNYGMHWVRQAPGKGLEWVSVIWYDGSNRYYADSVKGRFTISRDTSKNTLYLQMNSLRAEDTAVYYCARDPPITGTTGGDAFDIWGQGTMVTVSS
VL: not shown
B19: mAb10969 (antibody, V domains shown)
VH: QVQLVESGGGVVQPGRSLRLSCAASGFTFSSYAMHWVRQAPGKGLEWVAVISYDGSNKYYADSVKGRFTISRDNSKNTLYLQMNSLRAEDTAVYYCARDGRTITMVRGVIDDAFDIWGQGTMVTVSS
VL: not shown
B20: mAb10913 (antibody, V domains shown)
VH: EVQLVESGGGLVQPGGSLRLSCAASGFTFRNYEMNWVRQAPGKGLEWVSYITSSGSTMYYADSVKGRFTISRDNAKNSLYLQMNSLRAEDTAVYYCARDGFYYYYAMDVWGQGTTVTVSS
VL: QSVLTQPPSVSAAPGQKVTISCSGSSSNIGNNYVSWYQQLPGTAPKLLIYDNNKRPSGIPDRFSGSKSGTSATLGITGLQTGDEADYYCGTWDSSLSVGRVFGTGTKVTVLG
B21: mAb10915 (antibody, V domains shown)
VH: EVQLVESGGGLVQPGGSLRLSCAASGFTVSSNYMNWVRQAPGKGLEWVSVIYSGGSTFYADSVKGRFTISRHNSKNTLYLQMNSLRPEDTAVYYCARDLGGYFDYWGQGTLVTVSS
VL: not shown
B22: mAb10965 (antibody, V domains shown)
VH: EVQLVESGGGLIQPGGSLRLSCAASVFTVSYNYMSWVRQAPGKGLEWVSVIYSGGSTYYADSVKGRFTISRDNSKNTLYLQMNSLRAEDTAVYYCARALPGWGGSFEYFDYWGQGTLVTVSS
VL: not shown
B23: mAb10939 (antibody, V domains shown)
VH: EVQLVESGGGLVQPGGSLRLSCAASGLTVSSNYMNWVRQVPGKGLEWVSVIYSGGSKFYVDSVKGRFTISRHNSKNTLYLQMNSLRPEDTAVYYCTRDAQYYGMDVWGQGTTVTVSS
VL: DIQMTQSPSSLSASVGDRVTITCRASQSISTYLHWYQQKPGEAPKLLIYAASSLQSGVPSRFSGSGSGTDFTLTISSLQPEDFATYYCQQSYSTPPEIFGQGTKLEIKR
B24: mAb10964 (antibody, V domains shown)
VH: QVQLQESGPGLVKPSETLSLTCTVSGGSINNYYWIWIRQPPGKGLEWIGYIYHSGSTNYNPSLKSRVTISVDTSKNQFSLKVSSVTAADTAVYYCANMVRGVYEDDYWGQGTLVTVSS
VL: DIQMTQSPSSLSASVGDRVTITCRASQSISNYLNWYQQKPGKAPKLLIFAASSLRSGVPSRFSGSGSGTDFTLTISSLHPEDFATYYCQQNYNTPLTFGPGTKVDIKR

Molecular target: SARS-COV-2 RBD extracellular domain expressed with a C-terminal mouse IgG2a (SARS-CoV-2)
Assay: SPR Biacore, mAb captured via anti-hFc, 25 C

Binder	Kd [nM]	koff [s⁻¹]	kon [M⁻¹ s⁻¹]	t½ [h]
B1	0.0292	4.09e-05	1.4e+06	4.71
B2	0.0967	2.85e-05	295000	6.75
B3	0.0224			5.71
B4	0.0304	5.4e-05	1.78e+06	3.56
B5	0.181	0.000171	943000	1.12
B6	0.0139			
B7	0.0771			2.09
B8	0.0794	0.000107	1.35e+06	1.8
B9	0.0203			14.3
B10	0.0702			11.4
B11	0.0203			4.03
B12	0.54			1.38
B13	0.0327			5.75
B14	0.0887			1.48
B15	0.0367	0.000135	3.69e+06	1.43
B16	0.0502			0.755
B17	0.125	3.34e-05	266000	5.76
B18	0.0283	5.04e-05	1.78e+06	3.82
B19	0.216			1.93
B20	0.0553	0.000277	5e+06	0.695
B21	0.0323			21.1
B22	0.225			1.23
B23	0.121	8.74e-05	722000	2.2
B24	0.00397			5.22
